Read-outs that look alike come from different tables or passages of the source. Where no end group is shown, it is not given here. [ ]: non-standard residue; d: D form. tBuAla = CC(C)(C)C[C@H](N)C(=O)O; Cit = NC(=O)NCCC[C@H](N)C(=O)O
T1: NPR-B (natriuretic peptide receptor B), murine, expressed endogenously on NIH3T3 cells (murine, UniProt Q6VVW5 17-1047)
T1 sequence (looked up): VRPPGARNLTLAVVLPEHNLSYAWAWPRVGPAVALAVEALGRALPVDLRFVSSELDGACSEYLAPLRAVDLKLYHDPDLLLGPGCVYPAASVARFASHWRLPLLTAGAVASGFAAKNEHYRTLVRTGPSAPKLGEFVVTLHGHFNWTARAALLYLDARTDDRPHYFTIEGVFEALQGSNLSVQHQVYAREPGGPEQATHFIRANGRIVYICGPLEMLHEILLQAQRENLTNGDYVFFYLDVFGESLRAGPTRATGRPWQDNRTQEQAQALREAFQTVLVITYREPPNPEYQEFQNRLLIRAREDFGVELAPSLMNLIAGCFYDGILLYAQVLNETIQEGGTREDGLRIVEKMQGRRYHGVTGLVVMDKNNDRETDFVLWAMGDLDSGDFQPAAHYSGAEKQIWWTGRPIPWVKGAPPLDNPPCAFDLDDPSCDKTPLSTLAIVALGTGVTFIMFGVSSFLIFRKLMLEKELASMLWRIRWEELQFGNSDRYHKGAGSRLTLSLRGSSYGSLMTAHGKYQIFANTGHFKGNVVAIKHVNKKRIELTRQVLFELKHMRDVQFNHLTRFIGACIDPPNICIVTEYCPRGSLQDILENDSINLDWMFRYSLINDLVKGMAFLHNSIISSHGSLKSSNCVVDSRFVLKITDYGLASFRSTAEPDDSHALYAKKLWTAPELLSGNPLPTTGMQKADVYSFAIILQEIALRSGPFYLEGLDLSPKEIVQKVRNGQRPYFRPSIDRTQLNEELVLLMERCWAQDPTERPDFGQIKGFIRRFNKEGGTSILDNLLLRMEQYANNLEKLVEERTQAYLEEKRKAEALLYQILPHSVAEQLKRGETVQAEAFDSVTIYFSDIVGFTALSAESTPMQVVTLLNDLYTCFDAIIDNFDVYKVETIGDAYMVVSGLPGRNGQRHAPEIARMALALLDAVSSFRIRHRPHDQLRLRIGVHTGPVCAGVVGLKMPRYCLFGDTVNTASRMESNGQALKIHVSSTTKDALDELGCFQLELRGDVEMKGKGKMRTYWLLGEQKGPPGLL


Key:
[1] = biological target: T1, NPR-B (natriuretic peptide receptor B), …; test: cell-based or functional assay
[2] = biological target: T1, NPR-B (natriuretic peptide receptor B), …; test: cell-based or functional assay; remark: listed apart in the source

Row | Binder | cGMP response rel. to 1 uM CNP22; 10 nM peptide, NIH3T3 cells [1] | cGMP response rel. to 1 uM CNP22; 1 uM peptide, NIH3T3 cells [1] | cGMP response rel. to 1 uM CNP22; 10 nM peptide, NIH3T3 cells [2] | cGMP response rel. to 1 uM CNP22; 1 uM peptide, NIH3T3 cells [2]
1 | GLSRGCFGLKLDRIGSMSGLSC [CNP22, K4R, G21S] | 7 rel. to 1 uM CNP22 (100) | 39 rel. to 1 uM CNP22 (100) |  | 
2 | GLSRGCFGLKLDRIGSMSGLTC [CNP22, K4R, G21T] | 6 rel. to 1 uM CNP22 (100) | 21 rel. to 1 uM CNP22 (100) |  | 
3 | GLSRGCFGLKLDRIGSMSGLRC [CNP22, K4R, G21R] | 20 rel. to 1 uM CNP22 (100) | 21 rel. to 1 uM CNP22 (100) |  | 
4 | GLSRGCFGLRLDRIGSMSGLGC (ends and bridges not checked; also: dimer joined N-terminus to N-terminus by disuccinimidyl glutarate) [CNP22, K4R, K10R, N-term.--N-term. dimer/disuccinimidyl glutarate] |  |  | 19 rel. to 1 uM CNP22 (100) | 44 rel. to 1 uM CNP22 (100)
5 | GLSRGCFGLRLDRIGSMSGLGC (ends and bridges not checked; also: dimer joined N-terminus to N-terminus by Bis-PEO5) [CNP22, K4R, K10R, N-term.--N-term. dimer/Bis-PEO5] |  |  | 19 rel. to 1 uM CNP22 (100) | 41 rel. to 1 uM CNP22 (100)
6 | CNP53 (peptide) peptide: DLRVDTKSRAAWARLLQEHPNARKYKGANKKGLSKGCFGLKLDRIGSMSGLGC |  |  | 61 rel. to 1 uM CNP22 (100) | 101 rel. to 1 uM CNP22 (100)
7 | GLSRGCFGLKLDRIGSMSGLGC [CNP22, K4R] | 59 rel. to 1 uM CNP22 (100) | 121 rel. to 1 uM CNP22 (100) |  | 
8 | GLSRSCFGLKLDRIGSMSGLGC [CNP22, K4R, G5S] | 45 rel. to 1 uM CNP22 (100) |  |  | 
9 | GLSRRCFGLKLDRIGSMSGLGC [CNP22, K4R, G5R] | 18 rel. to 1 uM CNP22 (100) | 80 rel. to 1 uM CNP22 (100) |  | 
10 | GLSRGCYGLKLDRIGSMSGLGC (ends and bridges not checked; cysteine pairing not given here) [CNP22, K4R, F7Y] | 2 rel. to 1 uM CNP22 (100) | 18 rel. to 1 uM CNP22 (100) |  | 
11 | GLSRGCFSLKLDRIGSMSGLGC [CNP22, K4R, G8S] | 26 rel. to 1 uM CNP22 (100) | 86 rel. to 1 uM CNP22 (100) |  | 
12 | GLSRGCFVLKLDRIGSMSGLGC [CNP22, K4R, G8V] | 3 rel. to 1 uM CNP22 (100) | 25 rel. to 1 uM CNP22 (100) |  | 
13 | GLSRGCFTLKLDRIGSMSGLGC [CNP22, K4R, G8T] | 11 rel. to 1 uM CNP22 (100) | 66 rel. to 1 uM CNP22 (100) |  | 
14 | GLSRGCFGTKLDRIGSMSGLGC [CNP22, K4R, L9T] | 4 rel. to 1 uM CNP22 (100) | 68 rel. to 1 uM CNP22 (100) |  | 
15 | GLSRGCFGLRLDRIGSMSGLGC [CNP22, K4R, K10R] | 12 rel. to 1 uM CNP22 (100) | 80 rel. to 1 uM CNP22 (100) |  | 
16 | GLSRGCFGL[Cit]LDRIGSMSGLGC (ends and bridges not checked) [CNP22, K4R, K10Cit] | 6 rel. to 1 uM CNP22 (100) | 33 rel. to 1 uM CNP22 (100) |  | 

Row | Binder | cGMP response rel. to 1 uM CNP22; 10 nM peptide, NIH3T3 cells [1] | cGMP response rel. to 1 uM CNP22; 1 uM peptide, NIH3T3 cells [1] | cGMP response rel. to 1 uM CNP22; 10 nM peptide, NIH3T3 cells [2] | cGMP response rel. to 1 uM CNP22; 1 uM peptide, NIH3T3 cells [2]
17 | GLSRGCFGLQLDRIGSMSGLGC [CNP22, K4R, K10Q] | 9 rel. to 1 uM CNP22 (100) | 45 rel. to 1 uM CNP22 (100) |  | 
18 | GLSRGCFGLSLDRIGSMSGLGC [CNP22, K4R, K10S] | 16 rel. to 1 uM CNP22 (100) | 53 rel. to 1 uM CNP22 (100) |  | 
19 | GLSRGCFGLKLDRISSMSGLGC [CNP22, K4R, G15S] | 13 rel. to 1 uM CNP22 (100) | 71 rel. to 1 uM CNP22 (100) |  | 
20 | GLSRGCFGLKLDRINSMSGLGC [CNP22, K4R, G15N] | 4 rel. to 1 uM CNP22 (100) | 41 rel. to 1 uM CNP22 (100) |  | 
21 | GLSRGCFGLKLDRIRSMSGLGC [CNP22, K4R, G15R] | 0.3 rel. to 1 uM CNP22 (100) | 0.3 rel. to 1 uM CNP22 (100) |  | 
22 | GLSRGCFGLKLDRI[Cit]SMSGLGC (ends and bridges not checked) [CNP22, K4R, G15Cit] | 1.4 rel. to 1 uM CNP22 (100) | 2 rel. to 1 uM CNP22 (100) |  | 
23 | GLSRGCFGLKLDRIGQMSGLGC [CNP22, K4R, S16Q] | 42 rel. to 1 uM CNP22 (100) | 116 rel. to 1 uM CNP22 (100) |  | 
24 | GLSRGCFGLKLDRIGSNSGLGC [CNP22, K4R, M17N] | 40 rel. to 1 uM CNP22 (100) | 103 rel. to 1 uM CNP22 (100) |  | 
25 | GLSRGCFGLKLDRIGSVSGLGC [CNP22, K4R, M17V] | 10 rel. to 1 uM CNP22 (100) | 65 rel. to 1 uM CNP22 (100) |  | 
26 | GLSRGCFGLKLDRIGSMSSLGC [CNP22, K4R, G19S] | 21 rel. to 1 uM CNP22 (100) | 63 rel. to 1 uM CNP22 (100) |  | 
27 | GLSRGCFGLKLDRIGSMSRLGC [CNP22, K4R, G19R] | 22 rel. to 1 uM CNP22 (100) | 84 rel. to 1 uM CNP22 (100) |  | 
28 | GLSRGCFGLKLDRIGSMSGVGC [CNP22, K4R, L20V] | 0.2 rel. to 1 uM CNP22 (100) | 8 rel. to 1 uM CNP22 (100) |  | 
29 | GLSRGCFGLKLDRIGSMSG[tBuAla]GC (ends and bridges not checked) [CNP22, K4R, L20t-butyl-Ala] | 1 rel. to 1 uM CNP22 (100) | 21 rel. to 1 uM CNP22 (100) |  | 
30 | ELSEGCFGLKLDRIGSMSGLGC [CNP22, G1E, K4E] | 11 rel. to 1 uM CNP22 (100) | 54 rel. to 1 uM CNP22 (100) |  | 
31 | GLSRGCFGLKLDRIGSMSGRGC [CNP22, K4R, L20R] | 11 rel. to 1 uM CNP22 (100) | 8 rel. to 1 uM CNP22 (100) |  | 
